# System: cyno GHR
# Assay: STAT5 phosphorylation in vitro assay, cyno GHR-transfected HEK293 cells
# Type: cell-based, cynomolgus monkey
# Details: for fluorescent signal ave (phospho-STAT5): Table 8, cyno GHR-transfected cells
# Procedure: This Example illustrates the effect of GHR antibodies in an in vitro STAT5 phosphorylation assay. In this Example, the ability of GHR antibodies to block GHR downstream signaling was tested in vitro using human GHR overexpressing cells and cyno GHR overexpressing cells.
# GHR antagonist antibody Ab13 was tested for its ability to block STAT5 in an in vitro assay. HEK293 cells were transiently transfected with either DNA encoding full-length human GHR (SEQ ID NO: 140) or DNA encoding full-length cyno GHR (SEQ ID NO: 141). Cells were cultured in freestyle media for approximately 60 hours before testing. Cells were washed with DPBS (Dulbecco's Phosphate-Buffered Saline) and resuspended in Freestyle media, then counted using a hemocytometer. 1×10^6 cells were seeded per well in 6-well plates in 2 mls of Freestyle media. Cells were incubated for 2 hours at 37° C., then treated with 5, 50, or 500 nM Ab13 antibody in media. Cells were incubated at 37° C. with gentle mixing for 5 min with antibodies. 4.5 nM GH (Genotropin) was then added to all but control wells. Cells were incubated with GH at 37° C. with gentle mixing for 10 minutes.
# Following incubation with GH, 2 ml of ice cold DPBS with 1× protease inhibitor cocktail (Roche) and 1 mM sodium orthovanadate (BioLabs) were added to each well and the plates were placed on ice. Cells were transferred to 5 ml tubes and spun down to create a cell pellet and the wash buffer was aspirated, leaving the cell pellet.
# Reagents from Millipore™ MILLIPLEX® MAP Cell Signaling Buffer and Detection Kit (cat. #48-602) were used to lyse and treat the cell pellets. Millipore lysis buffer with 1× protease inhibitor cocktail and 1 mM sodium orthovanadate was added to each pellet at a volume of 200 ul/pellet. Cells were vortexed and incubated for 15 minutes at room temp with occasional vortexing. Millipore Assay buffer 2 with 1× protease inhibitor cocktail and 1 mM sodium orthovanadate was then added to the lysates at 300 ul/well.
# Millipore™ MILLIPLEX® MAP Phospho STAT5N8 (Tyr694/699) MAPmate™ beads (Cat. #46-641) were resuspended in Assay Buffer 2 (from Millipore™ kit cat. #48-602) and loaded on a 96-well filter plate (provided in kit) at 25 ul/well, 25 ul/well of sample lysate was added to the wells and the beads and samples were incubated overnight at 4′C with shaking in the dark.
# The liquid was then aspirated using a vacuum manifold and the remaining beads were washed using Millipore™ kit wash buffer. 25 ul Millipore™ kit detection antibody was added and incubated for 1 hour at room temperature with shaking in the dark. The detection antibody was vacuumed through and 25 ul kit streptavidin—Phycoerythrin was added and incubated in the dark for 15 min with shaking. 25 ul kit amplification buffer was then added and incubated for 15 min with shaking in the dark. The liquid was aspirated using a vacuum manifold, and the beads were resuspended in 150 ul kit assay buffer 2 and mixed on a shaker for 5 minutes before reading the plate.
# The plate was read using a Luminex™ 200 instrument and fluorescent signal emitted from the samples was measured, The results of the STAT5 assay are shown in Tables 5 and 6. “Ave” indicates the average fluorescent signal, and “SEM” indicates the standard error of the mean.
# Antibodies SS3 and SS1 (hIgG2Δa) were tested using a STAT5 phosphorylation assay. For the STAT5 assay, full-length human GHR overexpressing HEK293 cells or full-length cyno GHR-overexpressing HEK293 cells were cultured, counted by automated cell counter, and seeded in warm freestyle media in 12-well plates (5×10^5 cells/well in 1 ml media). Cells were allowed to settle for 3 hours at 37° C. then treated with 2.5, 5, 50, or 500 nM of SS1 or SS3 in media. […] Cells were incubated with GH at 37° C. with gentle mixing for 10 minutes.
# Reagents from Millipore™ MILLIPLEX® MAP Cell Signaling Buffer and Detection Kit (cat, #48-602) were used to lyse and treat the cell pellets. […]
# Chain of cyno GHR (as listed by the source): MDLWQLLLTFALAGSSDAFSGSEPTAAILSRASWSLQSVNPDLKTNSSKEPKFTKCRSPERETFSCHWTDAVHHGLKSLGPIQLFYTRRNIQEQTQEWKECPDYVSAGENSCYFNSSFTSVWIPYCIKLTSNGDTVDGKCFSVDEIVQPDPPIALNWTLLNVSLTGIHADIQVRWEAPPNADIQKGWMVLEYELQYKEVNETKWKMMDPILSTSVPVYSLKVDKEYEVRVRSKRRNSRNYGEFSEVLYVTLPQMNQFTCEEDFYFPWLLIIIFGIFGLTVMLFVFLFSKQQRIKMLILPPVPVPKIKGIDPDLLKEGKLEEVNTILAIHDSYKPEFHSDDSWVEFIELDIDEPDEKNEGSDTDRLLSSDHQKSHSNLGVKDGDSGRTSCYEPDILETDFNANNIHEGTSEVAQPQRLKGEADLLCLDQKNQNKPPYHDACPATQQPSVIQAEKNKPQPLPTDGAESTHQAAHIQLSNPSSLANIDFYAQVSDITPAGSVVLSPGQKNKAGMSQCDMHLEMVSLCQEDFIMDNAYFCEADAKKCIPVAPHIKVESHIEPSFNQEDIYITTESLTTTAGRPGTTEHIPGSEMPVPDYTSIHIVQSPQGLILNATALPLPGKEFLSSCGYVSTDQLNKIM
molecule,measurement,setting,value
"SS1: humanized GHR antagonist antibody; VL SEQ ID NO: 7, VH SEQ ID NO: 8; hIgG2Δa heavy chain SEQ ID NO: 134, light chain SEQ ID NO: 135 (antibody, Humanized and/or affinity matured antibody sequence) heavy: EVQLVESGGGLVKPGGSLRLSCAASGFTFSDAWMDWVRQAPGKGLEWVAEIRSKANYHATYYAESVKGRFTISRDDSKNTLYLQMNSLKTEDTAVYYCTLIRDYWGQGTLVTVSSASTKGPSVFPLAPCSRSTSESTAALGCLVKDYFPEPVTVSWNSGALTSGVHTFPAVLQSSGLYSLSSVVTVPSSNFGTQTYTCNVDHKPSNTKVDKTVERKCCVECPPCPAPPVAGPSVFLFPPKPKDTLMISRTPEVTCVVVDVSHEDPEVQFNWYVDGVEVHNAKTKPREEQFNSTFRVVSVLTVVHQDWLNGKEYKCKVSNKGLPSSIEKTISKTKGQPREPQVYTLPPSREEMTKNQVSLTCLVKGFYPSDIAVEWESNGQPENNYKTTPPMLDSDGSFFLYSKLTVDKSRWQQGNVFSCSVMHEALHNHYTQKSLSLSPGK light: EIVLTQSPGTLSLSPGERATLSCTATSSVSSSYLNWYQQKPGQAPRLLIYSTSNLASGIPDRFSGSGSGTDFTLTISRLEPEDFAVYYCHQYHRSTPTFGGGTKVEIKRTVAAPSVFIFPPSDEQLKSGTASVVCLLNNFYPREAKVQWKVDNALQSGNSQESVTEQDSKDSTYSLSSTLTLSKADYEKHKVYACEVTHQGLSSPVTKSFNRGEC",fluorescent signal ave (phospho-STAT5),2.5 nM antibody + 4.5 nM GH,496
same,fluorescent signal ave (phospho-STAT5),5 nM antibody + 4.5 nM GH,223
same,fluorescent signal ave (phospho-STAT5),50 nM antibody + 4.5 nM GH,17
same,fluorescent signal ave (phospho-STAT5),500 nM antibody + 4.5 nM GH,12
same,effect on GH-stimulated STAT5 signaling,"cells expressing cyno GHR, 4.5 nM GH",blocked STAT5 signaling in a dose-dependent manner
